± gives the standard deviation of the averaged measurements.
System: ATP
Experiment: switch fluorescence ratio, 500 uM ATP over buffer (Cy3 cluster intensity, sum of 5 cycles each) (fold (ratio)); higher = stronger signal-on switching upon ATP binding; sequences stand for … in TCGTCGGCAGCGTCAGATGTGTATAAGAGACAGTTTTTTTTTTTTTTTTTTTTTTTTT…TC
Conditions: aptamer strand: ATP DNA aptamer (quencher-CACCTGGGGGAGTATTGCGGAGGAAGG + anchor), 100 nM annealed; ATP concentration: 500 uM
Summary of the method: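 Switching-strand clusters labelled with Cy3 on a modified Illumina MiSeq flow-cell were annealed to 100 nM quencher-labelled ATP aptamer, imaged in selection buffer, and re-imaged after 15 min with 500 uM ATP at 22 °C. This was done over five cycles with NaOH stripping and re-annealing in between. The fluorescence ratio is summed target-cycle over summed buffer-cycle Cy3 intensity per cluster, averaged per switch-domain sequence, excluding clusters outside 100-1000 RFU.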
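Also: ATP exposure 15 min at 22 °C before imaging.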

Sequence | switch fluorescence ratio
AATTCTGGAA | 0.982 ± 0.011
AATTGAAAAG | 0.982 ± 0.027
AATTGAGTAT | 1.01 ± 0.015
AATTGCCAGA | 1.02 ± 0.02
AATTGCCAGT | 1.01 ± 0.018
AATTGCGGTA | 0.982 ± 0.05
AATTGGAAAA | 0.987 ± 0.019
AATTGGATGG | 1.02 ± 0.047
AATTGGGATG | 0.975 ± 0.034
AATTGGTACG | 0.992 ± 0.021
AATTGGTTTT | 0.982 ± 0.034
AATTGTGATG | 1.01 ± 0.02
AATTGTGTAC | 1.052 ± 0.0018
AATTGTTGTT | 0.998 ± 0.033
AATTGTTTCA | 0.974 ± 0.016
AATTGTTTGT | 0.998 ± 0.016
AATTTAAAGC | 1.03 ± 0.07
AATTTAAATG | 0.977 ± 0.03
AATTTAAGCG | 1.01 ± 0.017
AATTTAATAT | 1.01 ± 0.016
AATTTACATG | 1.02 ± 0.024
AATTTACGAT | 1.02 ± 0.014
AATTTACTGT | 1.01 ± 0.023
AATTTATCCG | 1.02 ± 0.059
AATTTATGC | 0.97 ± 0.011

Sequence | switch fluorescence ratio
AATTTCATTG | 0.9986 ± 0.0035
AATTTGAGAA | 0.998 ± 0.029
AATTTGGCAC | 1.05 ± 0.09
AATTTGGCAG | 0.99 ± 0.025
AATTTGGTCC | 1.04 ± 0.058
AATTTGTGCG | 0.991 ± 0.012
AATTTTAGGA | 0.98 ± 0.028
AATTTTATAC | 1.02 ± 0.016
AATTTTATTG | 0.988 ± 0.05
AATTTTCCAC | 1.02 ± 0.043
AATTTTGGAC | 1.01 ± 0.017
AATTTTGGGT | 1 ± 0.041
AATTTTGGTT | 0.99 ± 0.017
AATTTTTACT | 1.05 ± 0.1
AATTTTTCGG | 0.994 ± 0.042
AATTTTTGTG | 0.988 ± 0.022
AATTTTTTAT | 0.979 ± 0.036
AATTTTTTCC | 1.41 ± 0.53
ACAAAAAGGG | 1.02 ± 0.039
ACAAAAGGGG | 1.16 ± 0.22
ACAAACACTT | 1.158 ± 0.01
ACAAAGACCT | 1.42 ± 0.031
ACAACGGGTG | 2.1 ± 0.24
ACAACGGTCT | 1.042 ± 0.0035
ACAAGAGGGT | 1.002 ± 0.0051

Sequence | switch fluorescence ratio
ACAAGAGGTT | 0.995 ± 0.018
ACAAGATACA | 1.03 ± 0.021
ACAAGATTGG | 1.01 ± 0.041
ACAAGGAGGT | 0.983 ± 0.005
ACAAGGCAGA | 1.04 ± 0.013
ACAAGGGTC | 0.964 ± 0.025
ACAAGGTGAC | 1.082 ± 0.0021
ACAAGTAAGC | 1.048 ± 0.0067
ACAATAACAC | 1.095 ± 0.0093
ACAATATAGA | 1.0126 ± 8.1e-07
ACAATCGGCG | 1.02 ± 0.0072
ACAATGTCT | 0.996 ± 0.014
ACAATGTGGT | 0.951 ± 0.018
ACAATTTATT | 1.02 ± 0.051
ACACAATTTT | 1.01 ± 0.026
ACACACCAGG | 2.98 ± 0.18
ACACAGCGGC | 1.16 ± 0.046
ACACAGGTAT | 1.12 ± 0.059
ACACATCATA | 1.07 ± 0.032
ACACATTGGA | 1.03 ± 0.0023
ACACCCAAGT | 1.21 ± 0.14
ACACCTCCAA | 1.04 ± 0.027
ACACGAGGCT | 1.04 ± 0.029
ACACTCACCC | 1.57 ± 0.36
ACACTCATGG | 1.03 ± 0.068

Sequence | switch fluorescence ratio
ACACTCATTG | 1.06 ± 0.074
ACACTTTTCG | 1.01 ± 0.035
ACAGAATCGA | 1.02 ± 0.032
ACAGAATCGG | 1.03 ± 0.018
ACAGACAATG | 1.02 ± 0.045
ACAGACAGGC | 1.05 ± 0.062
ACAGACTTTG | 1.01 ± 0.062
ACAGAGGCAC | 1.02 ± 0.062
ACAGAGGGAG | 1.02 ± 0.011
ACAGATTTAG | 0.972 ± 0.014
ACAGCAGGGG | 1.25 ± 0.17
ACAGCTAAAA | 1.02 ± 0.016
ACAGGAAAAA | 0.976 ± 0.084
ACAGGAAACG | 1.042 ± 0.0014
ACAGGACAGC | 1.14 ± 0.049
ACAGGACGTT | 1.11 ± 0.028
ACAGGAGCGT | 1.1017 ± 0.00065
ACAGGAGTTT | 0.999 ± 0.01
ACAGGATCCG | 1.01 ± 0.00021
ACAGGCCAGC | 1.01 ± 0.022
ACAGGCTCCG | 1.05 ± 0.038
ACAGGGGAGT | 1.03 ± 0.02
ACAGGGGGTG | 1.07 ± 0.035
ACAGGGGTGG | 1.02 ± 0.021
ACAGGTTAGA | 1.05 ± 0.014

Sequence | switch fluorescence ratio
ACAGTAGGAA | 1.08 ± 0.035
ACAGTCGTCT | 0.949 ± 0.042
ACAGTCTGCG | 0.962 ± 0.037
ACAGTGCATT | 1.03 ± 0.025
ACAGTGTGTC | 0.994 ± 0.042
ACAGTTATTA | 1.03 ± 0.028
ACAGTTGGTT | 0.99 ± 0.06
ACAGTTTTTT | 0.98861 ± 1.6e-05
ACATAAGTG | 1.02 ± 0.019
ACATAAGTGG | 1.01 ± 0.011
ACATAATGTG | 1.06 ± 0.013
ACATAGGGCT | 0.987 ± 0.04
ACATAGTGCT | 1.004 ± 0.0077
ACATATATGA | 1.06 ± 0.031
ACATATGGGT | 1.01 ± 0.039
ACATCAGAAT | 1.01 ± 0.028
ACATCATACG | 1.233 ± 0.01
ACATCCAACG | 1.12 ± 0.028
ACATCCGGAC | 1.343 ± 0.011
ACATCCGTCG | 1.06 ± 0.022
ACATCCTACT | 1.15 ± 0.041
ACATCGACTG | 1.02 ± 0.048
ACATCGTGTT | 0.977 ± 0.033
ACATCTCGAT | 0.996 ± 0.015
ACATGAACCT | 2.14 ± 0.077

Sequence | switch fluorescence ratio
ACATGACGGT | 1.06 ± 0.027
ACATGCACGG | 1.268 ± 0.0013
ACATGCGGTG | 1.002 ± 0.0033
ACATGGCTAA | 1.08 ± 0.068
ACATGGGTGG | 0.962 ± 0.051
ACATGGTAGT | 0.97 ± 0.041
ACATGGTTAG | 0.987 ± 0.03
ACATGTCTGG | 1.001 ± 0.0016
ACATGTGCGT | 1.004 ± 0.01
ACATTAGTAG | 1.02 ± 0.033
ACATTAGTTA | 1.05 ± 0.033
ACATTATATG | 1.01 ± 0.043
ACATTCGACC | 1.11 ± 0.062
ACATTGGGAT | 0.998 ± 0.022
ACATTGTACG | 1.09 ± 0.019
ACATTTTTAG | 1.01 ± 0.013
ACCAAAAATG | 1.1 ± 0.13
ACCAACTCAG | 1.24 ± 0.037
ACCAAGTATC | 1.04 ± 0.036
ACCAAGTTCA | 1.02 ± 0.014
ACCAAGTTGG | 0.993 ± 0.016
ACCAGCTTTC | 1.16 ± 0.015
ACCAGGACTA | 1.038 ± 0.0017
ACCAGGGGGG | 1.07 ± 0.058
ACCAGGTGGT | 1.78 ± 1.1

Sequence | switch fluorescence ratio
ACCATAGAAT | 1.009 ± 0.0094
ACCATATGGA | 1.02 ± 0.064
ACCATCAAGG | 0.9815 ± 0.0016
ACCATTAATT | 0.991 ± 0.029
ACCATTGTGA | 0.998 ± 0.014
ACCATTTGTC | 1.06 ± 0.094
ACCCATGAAG | 0.989 ± 0.015
ACCCGAGTTT | 1 ± 0.018
ACCCGGACCT | 1.34 ± 0.059
ACCCGGCTTA | 1.19 ± 0.22
ACCCTAGACG | 1.03 ± 0.045
ACCCTGCAGA | 1.06 ± 0.0064
ACCCTGGAAC | 1.045 ± 0.0039
ACCCTGTTGG | 1.01 ± 0.029
ACCCTTATAG | 1.018 ± 0.0093
ACCGAGCATG | 1.36 ± 0.1
ACCGAGTTCT | 0.99 ± 0.057
ACCGATCTCA | 1.048 ± 0.0089
ACCGCATAGG | 1.0484 ± 4.5e-05
ACCGCATCGT | 1.21 ± 0.027
ACCGCGTGGG | 1.04 ± 7.3e-05
ACCGGAGAGC | 1.1 ± 0.18
ACCGGAGGGC | 0.9905 ± 0.0044
ACCGGCACGG | 0.9679 ± 0.0037
ACCGGGCCCT | 1.008 ± 0.0093

Sequence | switch fluorescence ratio
ACCGGGCGCC | 0.967 ± 0.027
ACCGGGGTGC | 1.612 ± 0.0063
ACCGGTTACC | 1.09 ± 0.029
ACCGGTTACG | 1.027 ± 0.0055
ACCGTATTTG | 1.119 ± 0.0047
ACCGTCCCCA | 1.26 ± 0.11
ACCGTGATGT | 1.08 ± 0.024
ACCGTGCTTA | 1.01 ± 0.032
ACCGTTGGGG | 1.04 ± 0.02
ACCTAATGTT | 1.02 ± 0.016
ACCTAGCTCC | 1.71 ± 0.056
ACCTAGGGAG | 1.05 ± 0.02
ACCTATCCGG | 1.03 ± 0.017
ACCTATCTTG | 1.03 ± 0.016
ACCTATTAGA | 1.01 ± 0.022
ACCTCGTTTC | 1.02 ± 0.018
ACCTGCGGGG | 1.01 ± 0.023
ACCTGGCACA | 1.09 ± 0.012
ACCTGGGTAT | 1.01 ± 0.049
ACCTTAAAGA | 0.9915 ± 0.005
ACCTTAATTA | 1.1 ± 0.044
ACCTTATAAT | 1.025 ± 0.0092
ACCTTTTAGT | 1.04 ± 0.018
ACGAAAAGTG | 1.05 ± 0.072
ACGAAAATTT | 1.05 ± 0.13

Reference: the supplement of paper PMC10126150
